# According to article PMC4940160, “Architecture and RNA binding of the human negative elongation factor”:
# B1: c-fos ssDNA (ssDNA)
# DNA: AAGACTGAGCCGGCGGCCGC
# B2: 44% GC ssRNA (ssRNA)
# RNA: ACCCCACAACUAAAAAAUCCCAACC
# B3: HIV-1 TAR RNA stem loop (structured_RNA)
# RNA: CCAGAUCUGAGCCUGGGAGCUCUCUGG
# B4: 60% GC DNA-RNA hybrid (DNA:RNA)
# DNA: AAGGGGAGCGGGGGAGGATAATAGG
# RNA: CCUAUUAUCCUCCCCCGCUCCCCUU
# B5: junB ssRNA (ssRNA)
# RNA: AGCGGCCAGGCCAGCCUCGGAGCCA
# B6: 60% GC ssDNA (ssDNA)
# DNA: AAGGGGAGCGGGGGAGGATAATAGG
# B7: 60% GC dsDNA (dsDNA)
# DNA 1: AAGGGGAGCGGGGGAGGATAATAGG
# DNA 2: CCTATTATCCTCCCCCGCTCCCCTT
# B8: 60% GC ssRNA (ssRNA)
# RNA: AAGGGGAGCGGGGGAGGAUAAUAGG
# Legend:
# [1] = biological target: NELF-A (6-188);NELF-C (183-590) (Homo sapiens;Homo sapiens, UniProt Q9H3P2;Q8IXH7 6-188;183-590, |); test: fluorescence anisotropy; NELF-AC: 30 mM NaCl, 3 mM MgCl2, 10 mM Na-HEPES pH 7.4, 2 mM DTT, 50 ug/ml BSA; other NELF complexes: same with 60 mM NaCl and 5 ug/ml yeast tRNA; 10 nM nucleic acid, incubated at RT, read at 30 C; conditions: protein: recombinant;recombinant, tags: N-His6 removed by thrombin;none, copies: 1;1
# [2] = biological target: NELF-A full-length;NELF-B;NELF-D (called NELF-C) (Homo sapiens;Homo sapiens;Homo sapiens, UniProt Q9H3P2;Q8WX92;Q8IXH7-4 1-528;49-628;1-581, ||); test: fluorescence anisotropy; yeast tRNA 5 ug/ml; NELF-AC: 30 mM NaCl, 3 mM MgCl2, 10 mM Na-HEPES pH 7.4, 2 mM DTT, 50 ug/ml BSA; other NELF complexes: same with 60 mM NaCl and 5 ug/ml yeast tRNA; 10 nM nucleic acid, incubated at RT, read at 30 C; conditions: protein: recombinant;recombinant;recombinant, tags: none stated;N-His6-TEV in NELF-B and NELF-BE constructs (cleaved);N-His6-TEV, cleaved, copies: 1;1;1, label: 5'-FAM
# [3] = biological target: NELF-A full-length;NELF-B;NELF-D (called NELF-C);NELF-E (1-138) (Homo sapiens;Homo sapiens;Homo …, UniProt Q9H3P2;Q8WX92;Q8IXH7-4;P18615 1-528;49-628;1-581;1-138, |||); test: as above; conditions: protein: recombinant;recombinant;recombinant;recombinant, copies: 1;1;1;1, label: 5'-FAM
# NELF-B;NELF-E (1-138) = NELF-B;NELF-E (1-138) (Homo sapiens;Homo sapiens, UniProt Q8WX92;P18615 49-628;1-138, |); test: as above; conditions: protein: recombinant;recombinant, tags: N-His6-TEV in NELF-B and NELF-BE constructs (cleaved);none stated, copies: 1;1, label: 5'-FAM
# [4] = biological target: NELF-A full-length;NELF-B;NELF-D (called NELF-C);NELF-E full-length (Homo sapiens;Homo sapiens;Homo …, UniProt Q9H3P2;Q8WX92;Q8IXH7-4;P18615 1-528;49-628;1-581;1-380, |||); test: as above; conditions: protein: recombinant;recombinant;recombinant;recombinant; copies: 1;1;1;1; label: 5'-FAM; hairpin
# [5] = biological target: NELF-A full-length;NELF-B;NELF-D patch mutant (called NELF-C);NELF-E (1-138) (Homo sapiens;Homo sapiens;Homo …, UniProt Q9H3P2;Q8WX92;Q8IXH7-4;P18615 1-528;49-628;1-581;1-138, ||R282Q;K306M;K362M;K363M;K365M;K375M;K379M;R410Q;R497Q|); test: as above; conditions: protein: recombinant;recombinant;recombinant;recombinant; copies: 1;1;1;1; label: 5'-FAM; single strand
# NELF-B = NELF-B (Homo sapiens, UniProt Q8WX92 49-628); test: as above; conditions: protein: recombinant; tags: N-His6-TEV in NELF-B and NELF-BE constructs (cleaved); label: 5'-FAM; single strand
# [6] = biological target: T1, NELF-A full-length;NELF-B;NELF-D patch mutant (called NELF-C) (Homo sapiens;Homo sapiens;Homo sapiens, UniProt Q9H3P2;Q8WX92;Q8IXH7-4 1-528;49-628;1-581, ||R282Q;K306M;K362M;K363M;K365M;K375M;K379M;R410Q;R497Q); test: as above; conditions: protein: recombinant;recombinant;recombinant; tags: none stated;N-His6-TEV in NELF-B and NELF-BE constructs (cleaved);N-His6-TEV, cleaved; copies: 1;1;1; label: 5'-FAM; single strand
# [7] = biological target: T2, NELF-A (6-188) patches 1,4;NELF-C (183-590) patches 1,2,4 (Homo sapiens;Homo sapiens, UniProt Q9H3P2;Q8IXH7 6-188;183-590, R65Q;R66Q;K146M;K161M;K168M;R175Q|R291Q;K315M;K371M;K372M;K374M;R419Q;R506Q); test: fluorescence anisotropy; text says impaired; Bmax printed 12.92; NELF-AC: 30 mM NaCl, 3 mM MgCl2, 10 mM Na-HEPES pH 7.4, 2 mM DTT, 50 ug/ml BSA; other NELF complexes: same with 60 mM NaCl and 5 ug/ml yeast tRNA; 10 nM nucleic acid, incubated at RT, read at 30 C; conditions: protein: recombinant;recombinant; tags: N-His6 removed by thrombin;none; copies: 1;1; label: 5'-FAM; single strand
# [8] = biological target: T2, NELF-A (6-188) patches 1,4;NELF-C …; test: fluorescence anisotropy; NELF-AC: 30 mM NaCl, 3 mM MgCl2, 10 mM Na-HEPES pH 7.4, 2 mM DTT, 50 ug/ml BSA; other NELF complexes: same with 60 mM NaCl and 5 ug/ml yeast tRNA; 10 nM nucleic acid, incubated at RT, read at 30 C; conditions: protein: recombinant;recombinant; tags: N-His6 removed by thrombin;none; copies: 1;1; label: 5'-FAM; single strand
# [9] = biological target: NELF-A (6-188) patches 1,4;NELF-C (183-590) patches 1,2,3,4 (Homo sapiens;Homo sapiens, UniProt Q9H3P2;Q8IXH7 6-188;183-590, R65Q;R66Q;K146M;K161M;K168M;R175Q|R291Q;K315M;K371M;K372M;K374M;K384M;K388M;R419 …); test: as above; conditions: protein: recombinant;recombinant; tags: N-His6 removed by thrombin;none; copies: 1;1; label: 5'-FAM; single strand
# [10] = biological target: T1, NELF-A full-length;NELF-B;NELF-D patch …; test: fluorescence anisotropy; yeast tRNA 5 ug/ml; error as printed; NELF-AC: 30 mM NaCl, 3 mM MgCl2, 10 mM Na-HEPES pH 7.4, 2 mM DTT, 50 ug/ml BSA; other NELF complexes: same with 60 mM NaCl and 5 ug/ml yeast tRNA; 10 nM nucleic acid, incubated at RT, read at 30 C; conditions: protein: recombinant;recombinant;recombinant, tags: none stated;N-His6-TEV in NELF-B and NELF-BE constructs (cleaved);N-His6-TEV, copies: 1;1;1, label: 5'-FAM, single strand
# Sequence of NELF-A full-length;NELF-B;NELF-D (called NELF-C);NELF-E (1-138) (Q9H3P2 whole entry, chain 1 of 4): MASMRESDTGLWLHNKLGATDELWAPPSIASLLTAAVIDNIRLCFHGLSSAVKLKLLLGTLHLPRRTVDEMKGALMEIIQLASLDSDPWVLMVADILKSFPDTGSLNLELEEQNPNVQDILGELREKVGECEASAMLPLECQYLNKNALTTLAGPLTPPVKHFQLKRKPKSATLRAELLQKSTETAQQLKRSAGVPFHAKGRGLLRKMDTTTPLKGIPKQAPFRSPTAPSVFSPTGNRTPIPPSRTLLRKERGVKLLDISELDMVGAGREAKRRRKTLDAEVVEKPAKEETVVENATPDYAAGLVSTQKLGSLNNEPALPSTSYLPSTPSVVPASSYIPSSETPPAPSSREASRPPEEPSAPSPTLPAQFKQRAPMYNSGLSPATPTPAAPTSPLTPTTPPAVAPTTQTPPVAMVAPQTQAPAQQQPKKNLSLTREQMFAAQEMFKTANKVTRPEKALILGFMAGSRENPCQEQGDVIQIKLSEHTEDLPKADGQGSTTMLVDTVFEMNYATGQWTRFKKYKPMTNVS
# Sequence of NELF-A full-length;NELF-B;NELF-D (called NELF-C);NELF-E (1-138) (Q8WX92 whole entry, chain 2 of 4): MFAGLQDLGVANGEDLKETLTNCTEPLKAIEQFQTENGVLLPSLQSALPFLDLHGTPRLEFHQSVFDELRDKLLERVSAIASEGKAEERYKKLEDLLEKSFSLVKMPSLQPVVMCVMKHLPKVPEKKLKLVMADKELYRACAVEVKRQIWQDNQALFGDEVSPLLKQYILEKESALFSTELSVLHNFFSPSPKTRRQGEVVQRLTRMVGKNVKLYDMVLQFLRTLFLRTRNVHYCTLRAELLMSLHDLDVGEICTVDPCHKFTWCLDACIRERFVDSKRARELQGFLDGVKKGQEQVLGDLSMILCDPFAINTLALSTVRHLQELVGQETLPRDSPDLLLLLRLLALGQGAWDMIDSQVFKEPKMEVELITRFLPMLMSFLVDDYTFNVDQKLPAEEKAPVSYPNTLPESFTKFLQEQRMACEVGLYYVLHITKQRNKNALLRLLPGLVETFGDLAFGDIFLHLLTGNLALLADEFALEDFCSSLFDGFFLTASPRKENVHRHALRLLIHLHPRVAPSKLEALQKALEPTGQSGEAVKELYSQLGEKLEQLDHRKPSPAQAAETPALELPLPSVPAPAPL
# Sequence of NELF-A full-length;NELF-B;NELF-D (called NELF-C);NELF-E (1-138) (Q8IXH7 10-590, chain 3 of 4): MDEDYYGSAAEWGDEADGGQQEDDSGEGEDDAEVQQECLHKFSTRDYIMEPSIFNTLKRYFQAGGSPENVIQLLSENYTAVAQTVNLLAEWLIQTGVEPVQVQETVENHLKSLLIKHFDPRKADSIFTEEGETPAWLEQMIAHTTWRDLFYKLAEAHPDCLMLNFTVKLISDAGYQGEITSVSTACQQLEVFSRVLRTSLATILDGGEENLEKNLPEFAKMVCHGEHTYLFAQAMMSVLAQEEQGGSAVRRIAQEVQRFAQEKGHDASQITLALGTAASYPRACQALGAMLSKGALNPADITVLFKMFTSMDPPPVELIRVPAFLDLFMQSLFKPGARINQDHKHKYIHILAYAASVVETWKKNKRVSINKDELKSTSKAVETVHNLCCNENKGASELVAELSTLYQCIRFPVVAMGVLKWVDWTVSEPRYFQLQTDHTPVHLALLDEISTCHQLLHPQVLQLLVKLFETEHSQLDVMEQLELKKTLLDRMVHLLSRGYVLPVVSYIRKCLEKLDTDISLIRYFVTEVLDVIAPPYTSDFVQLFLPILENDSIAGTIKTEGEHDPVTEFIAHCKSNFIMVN
# Sequence of NELF-A full-length;NELF-B;NELF-D (called NELF-C);NELF-E (1-138) (P18615 1-138, chain 4 of 4): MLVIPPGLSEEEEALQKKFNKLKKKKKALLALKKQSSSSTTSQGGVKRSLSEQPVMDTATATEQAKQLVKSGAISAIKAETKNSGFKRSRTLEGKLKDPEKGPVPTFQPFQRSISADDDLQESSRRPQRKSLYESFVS
# Sequence of NELF-A full-length;NELF-B;NELF-D (called NELF-C) (Q9H3P2 whole entry, chain 1 of 3): as the sequence (Q9H3P2 whole entry, chain 1 of 4) above
# Sequence of NELF-A full-length;NELF-B;NELF-D (called NELF-C) (Q8WX92 whole entry, chain 2 of 3): as the sequence (Q8WX92 whole entry, chain 2 of 4) above
# Sequence of NELF-A full-length;NELF-B;NELF-D (called NELF-C) (Q8IXH7 10-590, chain 3 of 3): as the sequence (Q8IXH7 10-590, chain 3 of 4) above
# Sequence of NELF-B;NELF-E (1-138) (Q8WX92 whole entry, chain 1 of 2): as the sequence (Q8WX92 whole entry, chain 2 of 4) above
# Sequence of NELF-B;NELF-E (1-138) (P18615 1-138, chain 2 of 2): as the sequence (P18615 1-138, chain 4 of 4) above
# Sequence of NELF-A (6-188);NELF-C (183-590) (Q9H3P2 6-188, chain 1 of 2): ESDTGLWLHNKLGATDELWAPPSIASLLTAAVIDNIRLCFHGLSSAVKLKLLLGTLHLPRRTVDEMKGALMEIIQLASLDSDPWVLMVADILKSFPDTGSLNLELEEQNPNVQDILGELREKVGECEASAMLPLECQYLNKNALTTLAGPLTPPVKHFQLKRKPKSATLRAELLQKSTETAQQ
# Sequence of NELF-A (6-188);NELF-C (183-590) (Q8IXH7 183-590, chain 2 of 2): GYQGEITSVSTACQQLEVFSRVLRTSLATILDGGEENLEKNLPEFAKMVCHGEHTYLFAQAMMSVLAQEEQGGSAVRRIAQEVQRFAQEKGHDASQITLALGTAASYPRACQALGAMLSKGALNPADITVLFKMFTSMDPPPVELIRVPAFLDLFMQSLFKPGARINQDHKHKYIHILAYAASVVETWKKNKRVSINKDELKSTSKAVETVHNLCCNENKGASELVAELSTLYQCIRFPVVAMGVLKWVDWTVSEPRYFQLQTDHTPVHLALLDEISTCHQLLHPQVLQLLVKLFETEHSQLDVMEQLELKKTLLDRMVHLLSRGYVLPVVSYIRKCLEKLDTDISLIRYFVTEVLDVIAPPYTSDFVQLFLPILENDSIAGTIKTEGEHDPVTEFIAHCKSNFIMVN
binder,measurement,setting,value
B1,binding result,"[1]; label: 5'-FAM, single strand",binds
B2,binding result,"[1]; label: 5'-FAM, single strand",no binding
B3,Kd,[2]; hairpin,1.32 ± 0.18 µM
same,Kd,[3]; hairpin,0.869 ± 0.14 µM
same,Kd,NELF-B;NELF-E (1-138); hairpin,5.59 ± 1.05 µM
same,Kd,[4],0.146 ± 0.03 µM
B4,binding result,[1],no binding
B5,Kd,"[1]; label: 5'-FAM, single strand",~8 µM
B6,Kd,[5],0.3 ± 0.08 µM
same,Kd,[2]; single strand,0.1 ± 0.03 µM
same,Kd,NELF-B,6.31 ± 1.92 µM
same,Kd,[6],0.77 ± 0.02 µM
same,Kd,[3]; single strand,0.03 ± 0.01 µM
same,Kd,NELF-B;NELF-E (1-138); single strand,17.4 ± 3.5 µM
same,Kd,[7],12.9 ± 2.28 µM
same,Kd,"[1]; label: 5'-FAM, single strand",17.5 ± 1.33 µM
B7,binding result,[1]; label: 5'-FAM,no binding
B8,Kd,[5],0.094 ± 0.02 µM
same,Kd,[2]; single strand,0.074 ± 0.014 µM
same,Kd,NELF-B,8.5 ± 1.59 µM
same,Kd,[3]; single strand,0.03 ± 0.007 µM
same,Kd,NELF-B;NELF-E (1-138); single strand,2.83 ± 1 µM
same,Kd,[8],14.3 ± 2.41 µM
same,Kd,[9],14.3 ± 2.67 µM
same,Kd,"[1]; label: 5'-FAM, single strand",6.87 ± 0.46 µM
same,Kd,[10],0.29 µM
